The values that follow come from publication PMC5078793.

The experiment concerns the target ADAMTS6 C-terminal region (human) (UniProt Q9UKP5). The experiment is described as follows: SPR; Biacore; ADAMTS protein (full-length or C-terminal region) immobilised by amine coupling on CM5 (~3000 RU); analyte injected at 30 ul/min; 10 mM HEPES pH 7.4, 0.1 M NaCl, 0.5 mM CaCl2, 0.005% P20; 1:1 kinetics or equilibrium analysis. (In general: SPR reads the build-up and loss of mass on a sensor chip optically.)

ADAMTS6 C-terminal region (human), sequence (Q9UKP5 558-1117): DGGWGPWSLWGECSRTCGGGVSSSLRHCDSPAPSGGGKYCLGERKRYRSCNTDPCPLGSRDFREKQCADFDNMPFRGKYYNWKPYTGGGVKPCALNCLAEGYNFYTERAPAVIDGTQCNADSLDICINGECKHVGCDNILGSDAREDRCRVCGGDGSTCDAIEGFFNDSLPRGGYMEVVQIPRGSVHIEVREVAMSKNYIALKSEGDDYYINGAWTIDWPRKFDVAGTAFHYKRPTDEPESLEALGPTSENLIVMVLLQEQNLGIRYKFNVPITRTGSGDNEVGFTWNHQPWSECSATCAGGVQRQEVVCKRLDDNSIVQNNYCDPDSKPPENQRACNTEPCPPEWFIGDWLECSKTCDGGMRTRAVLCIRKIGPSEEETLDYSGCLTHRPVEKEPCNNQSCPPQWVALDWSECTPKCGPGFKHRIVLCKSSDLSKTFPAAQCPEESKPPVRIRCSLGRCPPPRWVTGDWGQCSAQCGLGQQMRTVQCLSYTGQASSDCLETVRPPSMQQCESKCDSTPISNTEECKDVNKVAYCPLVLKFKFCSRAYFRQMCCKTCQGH

As to cellular fibronectin (natural protein), the Kd (in general, a measure of binding affinity in units of concentration) is 9.8 nM.
